Results as given in the supplement of paper PMC10567573.

B1: EMD (parent)
chain: YQSKGYNDDYYEESYFTTRTYGEP

Variants of: B1
Assay: protein stability index of a GFP-peptide fusion (GPS, HEK-293T) (PSI 1-6); higher = more stable
Conditions: c terminus: a fixed tail appended
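Note: lentivirally expressed fusions sorted by FACS into six bins by GFP to DsRed ratio, PSI derived from sequencing read proportions per bin multiplied by bin number.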

Variant	protein stability index
YQSKEYNDDYYEESYFTTRTYGEP	3.1
YQSKHYNDDYYEESYFTTRTYGEP	1.89
YQSKMYNDDYYEESYFTTRTYGEP	1.74
YQSKPYNDDYYEESYFTTRTYGEP	2.1
YQSKVYNDDYYEESYFTTRTYGEP	2.06
YQSKCYNDDYYEESYFTTRTYGEP	1.95
YQSKTYNDDYYEESYFTTRTYGEP	2.52
YQSKKYNDDYYEESYFTTRTYGEP	2.22
YQSKWYNDDYYEESYFTTRTYGEP	2.92
YQSKLYNDDYYEESYFTTRTYGEP	1.82
YQSKIYNDDYYEESYFTTRTYGEP	2.18
YQSKFYNDDYYEESYFTTRTYGEP	2.33
YQSKNYNDDYYEESYFTTRTYGEP	2.33
YQSKSYNDDYYEESYFTTRTYGEP	2.9
YQSKYYNDDYYEESYFTTRTYGEP	1.89
YQSKDYNDDYYEESYFTTRTYGEP	3.08
YQSKRYNDDYYEESYFTTRTYGEP	1.97
YQSKQYNDDYYEESYFTTRTYGEP	2.48
YQSKGYNDDWYEESYFTTRTYGEP	2.38
YQSKGYNDDAYEESYFTTRTYGEP	2.2
YQSKGYNDDIYEESYFTTRTYGEP	2.52
YQSKGYNDDTYEESYFTTRTYGEP	2.5
YQSKGYNDDPYEESYFTTRTYGEP	2.53
YQSKGYNDDQYEESYFTTRTYGEP	2.67

Variant	protein stability index
YQSKGYNDDMYEESYFTTRTYGEP	2.12
YQSKGYNDDRYEESYFTTRTYGEP	2.82
YQSKGYNDDHYEESYFTTRTYGEP	2.45
YQSKGYNDDEYEESYFTTRTYGEP	3.04
YQSKGYNDDFYEESYFTTRTYGEP	2.11
YQSKGYNDDVYEESYFTTRTYGEP	2.82
YQSKGYNDDSYEESYFTTRTYGEP	2.65
YQSKGYNDDGYEESYFTTRTYGEP	2.49
YQSKGYNDDDYEESYFTTRTYGEP	2.85
YQSKGYNDDNYEESYFTTRTYGEP	2.64
YQSKGYNDDKYEESYFTTRTYGEP	2.44
YQSKGYNDDCYEESYFTTRTYGEP	2.47
YQSKGYNDDLYEESYFTTRTYGEP	2.18
YQSKGYKDDYYEESYFTTRTYGEP	1.94
YQSKGYGDDYYEESYFTTRTYGEP	2.13
YQSKGYWDDYYEESYFTTRTYGEP	3.23
YQSKGYCDDYYEESYFTTRTYGEP	2.05
YQSKGYEDDYYEESYFTTRTYGEP	2.87
YQSKGYMDDYYEESYFTTRTYGEP	1.67
YQSKGYPDDYYEESYFTTRTYGEP	2.17
YQSKGYFDDYYEESYFTTRTYGEP	3.55
YQSKGYTDDYYEESYFTTRTYGEP	2.14
YQSKGYVDDYYEESYFTTRTYGEP	2.13
YQSKGYRDDYYEESYFTTRTYGEP	1.75

Variant	protein stability index
YQSKGYYDDYYEESYFTTRTYGEP	1.88
YQSKGYLDDYYEESYFTTRTYGEP	1.71
YQSKGYIDDYYEESYFTTRTYGEP	1.76
YQSKGYHDDYYEESYFTTRTYGEP	2.18
YQSKGYADDYYEESYFTTRTYGEP	2.25
YQSKGYDDDYYEESYFTTRTYGEP	2.62
YQSKGYSDDYYEESYFTTRTYGEP	2.47
YQSKGYQDDYYEESYFTTRTYGEP	2.14
YQSKGYNDDYFEESYFTTRTYGEP	1.68
YQSKGYNDDYHEESYFTTRTYGEP	2.6
YQSKGYNDDYTEESYFTTRTYGEP	2.94
YQSKGYNDDYGEESYFTTRTYGEP	2.84
YQSKGYNDDYNEESYFTTRTYGEP	2.98
YQSKGYNDDYEEESYFTTRTYGEP	3.16
YQSKGYNDDYREESYFTTRTYGEP	2.66
YQSKGYNDDYAEESYFTTRTYGEP	2.97
YQSKGYNDDYKEESYFTTRTYGEP	2.19
YQSKGYNDDYMEESYFTTRTYGEP	2.51
YQSKGYNDDYIEESYFTTRTYGEP	2.19
YQSKGYNDDYQEESYFTTRTYGEP	2.8
YQSKGYNDDYWEESYFTTRTYGEP	1.87
YQSKGYNDDYDEESYFTTRTYGEP	3.29
YQSKGYNDDYVEESYFTTRTYGEP	2.34
YQSKGYNDDYSEESYFTTRTYGEP	2.8

Variant	protein stability index
YQSKGYNDDYPEESYFTTRTYGEP	2.19
YQSKGYNDDYCEESYFTTRTYGEP	2.36
YQSKGYNDDYLEESYFTTRTYGEP	2.38
YQSKGYNPDYYEESYFTTRTYGEP	2.36
YQSKGYNRDYYEESYFTTRTYGEP	1.8
YQSKGYNSDYYEESYFTTRTYGEP	1.92
YQSKGYNFDYYEESYFTTRTYGEP	2.13
YQSKGYNTDYYEESYFTTRTYGEP	2.09
YQSKGYNADYYEESYFTTRTYGEP	1.5
YQSKGYNWDYYEESYFTTRTYGEP	2.85
YQSKGYNYDYYEESYFTTRTYGEP	1.72
YQSKGYNHDYYEESYFTTRTYGEP	1.96
YQSKGYNGDYYEESYFTTRTYGEP	1.65
YQSKGYNEDYYEESYFTTRTYGEP	2.13
YQSKGYNLDYYEESYFTTRTYGEP	2.37
YQSKGYNMDYYEESYFTTRTYGEP	3.87
YQSKGYNQDYYEESYFTTRTYGEP	1.67
YQSKGYNNDYYEESYFTTRTYGEP	1.82
YQSKGYNCDYYEESYFTTRTYGEP	2.62
YQSKGYNVDYYEESYFTTRTYGEP	2.47
YQSKGYNKDYYEESYFTTRTYGEP	1.91
YQSKGYNIDYYEESYFTTRTYGEP	2.05
